Biological target: T1, human CD8 (captured on Octet biosensor) (human, UniProt P01732 22-182)
T1 construct: also called recombinant human CD8a
Assay: method not given; Octet (BLI) is the method of this example

B1: humanized OKT8 variant (H2L1) (antibody)
chain 1: QVQLVQSGAEVKKPGASVKVSCKASGFNIKDTYIHWVRQAPGKGLEWMGRIDPANDNTLYASKFQGRVTITADTSINTAYMELSRLRSDDTAVYYCGRGYGYYVFDHWGQGTTVTVSSASTKGPSVFPLAPSSKSTSGGTAALGCLVKDYFPEPVTVSWNSGALTSGVHTFPAVLQSSGLYSLSSVVTVPSSSLGTQTYICNVNHKPSNTKVDKKVEPKSCDKTHTCPPCPAPPVAGPSVFLFPPKPKDTLMISRTPEVTCVVVDVKHEDPEVKFNWYVDGVEVHNAKTKPREEQYNSTYRVVSVLTVLHQDWLNGKEYKCKVSNKALPAPIEKTISKAKGQPREPQVYTLPPSREQMTKNQVKLTCLVKGFYPSDIAVEWESNGQPENNYKTTPPVLDSDGSFFLYSKLTVDKSRWQQGNVFSCSVMHEALHNHYTQKSLSLSPGK
chain 2: DIKMTQSPSSLSASVGDRVTITCRTSRSISQYLAWYQEKPGKTNKLLIYSGSTLQSGIPSRFSGSGSGTDFTLTISSLQPEDFATYYCQQHNENPLTFGAGTKLEIKRTVAAPSVFIFPPSDEQLKSGTASVVCLLNNFYPREAKVQWKVDNALQSGNSQESVTEQDSKDSTYSLSSTLTLSKADYEKHKVYACEVTHQGLSSPVTKSFNRGEC
chain 3: EPKSSDKTHTCPPCPAPPVAGPSVFLFPPKPKDTLMISRTPEVTCVVVDVKHEDPEVKFNWYVDGVEVHNAKTKPREEEYNSTYRVVSVLTVLHQDWLNGKEYKCKVSNKALPAPIEKTISKAKGQPREPQVYTLPPSREEMTKNQVSLTCDVSGFYPSDIAVEWESDGQPENNYKTTPPVLDSDGSFFLYSKLTVDKSRWEQGDVFSCSVMHEALHNHYTQKSLSLSPGK
Kd: 12 nM

Reference: patent US20190016778A1 (Xencor, published 2019)
